Experiment [1] concerns the target T1, Soluble extracellular domain (ECD) of human CDCP1 (human, UniProt Q9H5V8 30-663).
T1 construct: also called CDCP1-ECD; hCDCP1-ECD
T1 sequence: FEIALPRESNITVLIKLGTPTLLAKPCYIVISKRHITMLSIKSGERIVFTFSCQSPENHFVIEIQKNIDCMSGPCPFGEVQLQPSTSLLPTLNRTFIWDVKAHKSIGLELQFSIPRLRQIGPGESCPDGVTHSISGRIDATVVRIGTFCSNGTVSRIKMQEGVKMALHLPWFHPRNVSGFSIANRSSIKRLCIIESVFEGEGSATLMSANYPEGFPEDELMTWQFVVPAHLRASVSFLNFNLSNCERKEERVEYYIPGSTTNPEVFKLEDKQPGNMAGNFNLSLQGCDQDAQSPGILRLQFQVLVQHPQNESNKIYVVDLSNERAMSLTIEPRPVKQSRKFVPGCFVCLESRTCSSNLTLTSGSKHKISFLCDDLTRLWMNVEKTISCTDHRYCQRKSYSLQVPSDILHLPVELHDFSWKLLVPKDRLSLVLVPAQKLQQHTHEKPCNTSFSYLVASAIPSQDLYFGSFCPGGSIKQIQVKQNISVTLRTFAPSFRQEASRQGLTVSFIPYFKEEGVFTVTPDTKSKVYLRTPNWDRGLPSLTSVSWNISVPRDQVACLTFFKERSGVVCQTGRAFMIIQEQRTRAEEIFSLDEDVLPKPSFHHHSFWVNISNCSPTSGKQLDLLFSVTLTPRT
In words: Biacore SPR, immobilized hCDCP1-ECD. In general terms: In SPR one partner is held on a chip, and binding of the other changes the refractive index at the surface.

Experiment [2] has as its target Short1 (huCDCP1_SH1_ECD aa1-216)_SBP (human) (UniProt Q9H5V8). In words: ELISA, SBP-CDCP1-Short1 captured on a streptavidin plate, antibody 0.1 ug in 50 ul, goat anti-mouse IgG-HRP, absorbance 370 nm/492 nm; the same antibody on Medium coating: 0,2330.
Experiment [3] has as its target Short5 (hu CDCP1_SH5_ECD (aa 1-361)_SBP) (human) (UniProt Q9H5V8). As to the kind of experiment: ELISA, SBP-CDCP1-Short5 captured on a streptavidin plate, antibody 0.1 ug in 50 ul, goat anti-mouse IgG-HRP, absorbance 370 nm/492 nm; the same antibody on Medium coating: 0,2330.
In experiment [4] the target is Short1 (huCDCP1_SH1_ECD aa1-216)_SBP (human) (UniProt Q9H5V8). In words: ELISA, SBP-CDCP1-Short1 captured on a streptavidin plate, antibody 0.1 ug in 50 ul, goat anti-mouse IgG-HRP, absorbance 370 nm/492 nm; the same antibody on Medium coating: 0,0420. For orientation: ELISA stands for enzyme-linked immunosorbent assay.
The target of experiment [5] is Short5 (hu CDCP1_SH5_ECD (aa 1-361)_SBP) (human) (UniProt Q9H5V8). As to the kind of experiment: ELISA, SBP-CDCP1-Short5 captured on a streptavidin plate, antibody 0.1 ug in 50 ul, goat anti-mouse IgG-HRP, absorbance 370 nm/492 nm; the same antibody on Medium coating: 0,0420.

Usually Kd stands for the constant that tells how readily two partners part at equilibrium. Read a high Kd as a looser complex. Usually koff stands for a measure of how fast the partners let go of each other. The low end stands for slow dissociation, the high end for fast dissociation. For orientation: kon means a measure of how fast the partners come together. Low readings indicate slow association, high ones fast association.

B1: Mab CDCP1-015 (antibody, V domains shown)
VH: QVHLKQSGPGLVQPSQSLSITCTVSGFSLTNFGLHWVRQSPGKGLEWLGVIWSGGVTDYNAAFISRLSISKDNSKSQVFFKMNSLQPNDTAIYYCARNYDHDYSMDYWGQGISVSVSS
VL: DVVLTQTPLSLPVIIGDQASISCKSTKSLLNSAGFTYLGWYLQKPGQSPQLLIYLVSNRFSGVPDRFSGSGSGTDFTLKISRVEAEDLGVYFCFQSSYLPLTFGSGTKLEIK
notes: also called CDCP1-0015; Murine CDCP1-015
In experiment [1], B1 showed a Kd of 0.47 nM, a koff of 0.00022 s⁻¹ and a kon of 460000 M⁻¹ s⁻¹. The same molecule gave an Absorption in experiment [2] of 1.3. In experiment [3], this molecule returned an Absorption of 1.49.

B2: CUB4 antibody (Deposition No. DSM ACC2551), murine (antibody, V domains shown)
VH: EVQLVESGGDLVKPGGSLKLSCAASGFTFNSYGMSWVRQTPDKRLEWVATISSGGSYTYYPDSVKGRFTISRDNAKNTLYLQMSSLKSEDTAMYYCARHPDYDGVWFAYWGQGTLVTVSA
VL: QIVLTQSPAIMSASPGEKVTMTCSVSSSVFYVHWYQQKSGTSPKRWIYDTSKLASGVPARFSGSGSGTSYSLTISSMEAEDAATYYCQQWNSNPPTFGGGTKLEIK
notes: Deposited murine monoclonal antibody; also called Mab CUB4; murine CUB4
In experiment [1], B2 yielded a Kd of 0.52 nM, a koff of 0.00052 s⁻¹ and an on-rate (kon) of 990000 M⁻¹ s⁻¹. Besides, the Absorption in experiment [4] was determined as 0.787. This molecule also yielded an Absorption in experiment [5] of 1.04.
